Earlier results, collected in paper PMC9696485.

Molecular target: integrin α6β4 (Homo sapiens) (UniProt P23229)
UniProt P23229, sequence (P23229 24-1130, chain 1 of 2): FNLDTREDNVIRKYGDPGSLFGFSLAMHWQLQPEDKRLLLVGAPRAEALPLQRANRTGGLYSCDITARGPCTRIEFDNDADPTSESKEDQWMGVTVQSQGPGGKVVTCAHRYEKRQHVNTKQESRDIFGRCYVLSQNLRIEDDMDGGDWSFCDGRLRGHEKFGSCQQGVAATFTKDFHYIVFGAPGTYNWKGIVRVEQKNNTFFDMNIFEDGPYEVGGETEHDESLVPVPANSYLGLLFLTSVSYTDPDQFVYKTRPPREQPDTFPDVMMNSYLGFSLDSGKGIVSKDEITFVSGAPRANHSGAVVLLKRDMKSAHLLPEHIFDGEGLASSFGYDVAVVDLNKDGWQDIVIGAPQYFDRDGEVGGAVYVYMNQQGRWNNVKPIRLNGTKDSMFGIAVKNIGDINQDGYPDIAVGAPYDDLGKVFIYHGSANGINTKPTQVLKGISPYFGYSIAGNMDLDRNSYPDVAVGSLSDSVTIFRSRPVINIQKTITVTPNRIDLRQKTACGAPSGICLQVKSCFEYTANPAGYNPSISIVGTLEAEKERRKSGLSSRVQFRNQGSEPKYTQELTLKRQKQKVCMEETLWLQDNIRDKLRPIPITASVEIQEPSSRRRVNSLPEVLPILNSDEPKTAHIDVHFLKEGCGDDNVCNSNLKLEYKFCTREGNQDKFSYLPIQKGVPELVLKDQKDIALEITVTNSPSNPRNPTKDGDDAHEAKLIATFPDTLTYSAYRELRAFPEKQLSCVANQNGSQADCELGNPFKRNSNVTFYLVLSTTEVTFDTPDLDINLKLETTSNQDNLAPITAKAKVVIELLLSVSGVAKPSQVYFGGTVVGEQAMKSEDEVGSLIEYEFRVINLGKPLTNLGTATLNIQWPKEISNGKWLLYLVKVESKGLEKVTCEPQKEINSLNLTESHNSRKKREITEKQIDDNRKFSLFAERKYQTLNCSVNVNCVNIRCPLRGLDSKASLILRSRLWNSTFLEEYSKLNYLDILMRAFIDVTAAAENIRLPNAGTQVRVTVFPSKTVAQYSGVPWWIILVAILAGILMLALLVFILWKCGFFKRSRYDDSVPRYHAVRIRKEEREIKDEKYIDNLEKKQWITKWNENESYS
UniProt P23229, sequence (P16144 28-1822, chain 2 of 2, further chain): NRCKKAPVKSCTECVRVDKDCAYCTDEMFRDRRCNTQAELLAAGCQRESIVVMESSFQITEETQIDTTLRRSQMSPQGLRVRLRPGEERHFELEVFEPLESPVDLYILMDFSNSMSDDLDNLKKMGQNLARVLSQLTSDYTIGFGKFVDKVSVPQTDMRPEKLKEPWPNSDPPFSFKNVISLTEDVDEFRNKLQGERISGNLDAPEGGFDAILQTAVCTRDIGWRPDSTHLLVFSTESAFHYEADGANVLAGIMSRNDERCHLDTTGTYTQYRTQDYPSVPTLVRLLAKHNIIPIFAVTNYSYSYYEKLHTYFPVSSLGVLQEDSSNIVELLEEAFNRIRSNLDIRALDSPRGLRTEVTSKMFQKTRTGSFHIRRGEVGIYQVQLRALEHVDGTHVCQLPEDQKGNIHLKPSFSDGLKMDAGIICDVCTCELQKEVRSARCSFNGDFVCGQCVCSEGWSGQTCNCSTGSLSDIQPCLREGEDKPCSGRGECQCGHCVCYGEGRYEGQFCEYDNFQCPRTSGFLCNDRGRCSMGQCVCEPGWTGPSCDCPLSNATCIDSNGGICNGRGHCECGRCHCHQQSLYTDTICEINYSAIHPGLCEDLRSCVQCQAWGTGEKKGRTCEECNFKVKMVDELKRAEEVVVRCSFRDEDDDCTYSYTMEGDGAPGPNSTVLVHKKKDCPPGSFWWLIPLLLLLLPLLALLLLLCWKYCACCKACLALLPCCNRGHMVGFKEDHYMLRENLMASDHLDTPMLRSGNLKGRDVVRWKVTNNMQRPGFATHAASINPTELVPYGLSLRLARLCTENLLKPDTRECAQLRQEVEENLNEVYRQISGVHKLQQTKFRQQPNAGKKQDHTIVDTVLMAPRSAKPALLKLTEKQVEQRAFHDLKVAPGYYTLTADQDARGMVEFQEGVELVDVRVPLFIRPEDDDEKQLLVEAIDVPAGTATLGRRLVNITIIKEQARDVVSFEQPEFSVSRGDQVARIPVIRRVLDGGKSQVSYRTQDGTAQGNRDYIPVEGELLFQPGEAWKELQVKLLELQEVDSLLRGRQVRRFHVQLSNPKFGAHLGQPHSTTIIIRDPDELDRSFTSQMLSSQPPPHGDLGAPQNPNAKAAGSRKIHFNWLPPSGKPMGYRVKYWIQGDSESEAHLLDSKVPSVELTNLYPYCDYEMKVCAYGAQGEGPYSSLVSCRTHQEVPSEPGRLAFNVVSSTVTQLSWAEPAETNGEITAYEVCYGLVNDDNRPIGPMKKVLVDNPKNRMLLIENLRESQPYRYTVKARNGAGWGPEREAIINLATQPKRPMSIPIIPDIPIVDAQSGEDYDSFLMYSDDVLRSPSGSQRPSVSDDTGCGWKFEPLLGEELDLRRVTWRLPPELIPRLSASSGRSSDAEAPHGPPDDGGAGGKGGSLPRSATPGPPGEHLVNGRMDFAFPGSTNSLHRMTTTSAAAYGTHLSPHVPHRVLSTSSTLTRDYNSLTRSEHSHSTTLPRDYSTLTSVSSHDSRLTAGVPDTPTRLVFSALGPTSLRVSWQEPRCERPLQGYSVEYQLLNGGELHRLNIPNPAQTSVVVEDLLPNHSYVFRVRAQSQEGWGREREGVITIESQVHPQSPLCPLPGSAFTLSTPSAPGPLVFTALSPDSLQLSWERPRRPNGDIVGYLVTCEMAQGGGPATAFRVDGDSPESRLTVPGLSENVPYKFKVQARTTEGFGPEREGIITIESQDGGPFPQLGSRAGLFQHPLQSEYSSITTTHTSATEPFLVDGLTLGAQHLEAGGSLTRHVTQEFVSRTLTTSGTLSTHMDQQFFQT

Kd: 2500 nM
Substance: AG86 laminin peptide
